Bridge positions count the residues as written; N and C are the ends. Square brackets hold non-standard residues; d marks the D form. Ends that are not written are not given here. * marks the point of attachment. Acetyl(2-(4-imidazolyl)) = O=C(Cc1c[nH]cn1)*; Aib = CC(C)(N)C(=O)O
T1: human GIP receptor (human, UniProt P48546 22-466)
T1 sequence (looked up): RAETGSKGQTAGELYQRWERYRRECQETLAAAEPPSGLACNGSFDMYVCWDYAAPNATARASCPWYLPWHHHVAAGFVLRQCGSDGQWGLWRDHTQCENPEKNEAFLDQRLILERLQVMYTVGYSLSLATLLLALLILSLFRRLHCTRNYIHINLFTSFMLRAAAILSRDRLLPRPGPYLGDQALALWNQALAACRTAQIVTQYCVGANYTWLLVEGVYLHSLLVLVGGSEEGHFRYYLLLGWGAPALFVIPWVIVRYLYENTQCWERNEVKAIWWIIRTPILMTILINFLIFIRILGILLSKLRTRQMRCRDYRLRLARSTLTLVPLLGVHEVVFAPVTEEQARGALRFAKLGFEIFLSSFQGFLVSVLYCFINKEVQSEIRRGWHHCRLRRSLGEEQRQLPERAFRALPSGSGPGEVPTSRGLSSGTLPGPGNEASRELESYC


Each binder was assayed against human GLP-1 receptor (human, UniProt P43220 24-463) (assay: cell-based or functional assay).

Going from Y[Aib]QGTFTSDYSKALDEKAAKDFVNWLLDQHPSSGQPPPSC (bridge 16-20) [triple agonist of SEQ ID NO: 102] to {Acetyl(2-(4-imidazolyl))}-[Aib]QGTFTSDYSKYLDEKRQKEFVQWLLDTKC (bridge 15-19) [triple agonist of SEQ ID NO: 89], the “In vitro activity compared to native-type peptide (%), vs GLP-1” value (“In vitro activity … (%), vs GLP-1” below) falls from 23.3% to 7.1%.

First: Y[Aib]QGTFTSDYSKALDEKAAKEFVQWLLDQHPSSGQPPPSC (bridge 16-20) [triple agonist of SEQ ID NO: 100]
Second: Y[Aib]QGTFTSDYSKYLDEKRAKEFVQWLLDCHPSSGQPPPS (bridge 16-20) [triple agonist of SEQ ID NO: 97]
The “In vitro activity … (%), vs GLP-1” value of the first is higher: 42.2% for the first, 10.5% for the second.

Compared with Y[Aib]QGTFTSDYSKYLDEKRAKEFVQWLLCHHPSSGQPPPS (bridge 16-20) [triple agonist of SEQ ID NO: 95], [Acetyl(2-(4-imidazolyl))]GQGTFTSDYSIQLDEIAVRDFVEWLKNGGPSSGAPPPSHG [triple agonist of SEQ ID NO: 14] is higher in “In vitro activity … (%), vs GLP-1” value: 2.1% for the first, 28% for the second.

Compared with {Acetyl(2-(4-imidazolyl))}-[Aib]QGTFTSDYSKYLDEKRQKEFVQWLLNTKC (bridge 15-19) [triple agonist of SEQ ID NO: 88], H[Aib]QGTFTSDVSSYLDGQAQKEFIAWLVKGC [triple agonist of SEQ ID NO: 2] is lower in “In vitro activity … (%), vs GLP-1” value: 9.6% for the first, 5.9% for the second.

First: [Acetyl(2-(4-imidazolyl))]GEGTFISDYSIQLDEIAVQDFVEWLLAQKPSSGAPPPSHG [triple agonist of SEQ ID NO: 13]
Second: [Acetyl(2-(4-imidazolyl))]GEGTFTSDLSKYLDSRRQQLFVQWLKAGGPSSGAPPPSHG [triple agonist of SEQ ID NO: 11]
The “In vitro activity … (%), vs GLP-1” value of the first is lower: under 0.1% for the first, 1.4% for the second.

Compared with Y[Aib]QGTFTSDYSKALDEKAAKEFVNWLLDQHPSSGQPPPSC (bridge 16-20) [triple agonist of SEQ ID NO: 101], [Acetyl(2-(4-imidazolyl))]GQGTFTSDLSKQMDEERAREFIEWLLAQKPSSGAPPPSHG [triple agonist of SEQ ID NO: 17] is lower in “In vitro activity … (%), vs GLP-1” value: 23.2% for the first, 0.2% for the second.

Going from [Acetyl(2-(4-imidazolyl))]GQGTFTSDLSKQMDSERAREFIEWLKNTGPSSGAPPPSHG [triple agonist of SEQ ID NO: 18] to H[Aib]QGTFTSDVSKYLDGQAAQEFVAWLLAGGGPSSGAPPPSC [triple agonist of SEQ ID NO: 10], the “In vitro activity … (%), vs GLP-1” value rises from under 0.1% to 46%.

Each binder was assayed against T1, human GIP receptor (assay: cell-based or functional assay).

Going from Y[Aib]QGTFTSDYSKALDEKAAKDFVNWLLDQHPSSGQPPPSC (bridge 16-20) [triple agonist of SEQ ID NO: 102] to {Acetyl(2-(4-imidazolyl))}-[Aib]QGTFTSDYSKYLDEKRQKEFVQWLLDTKC (bridge 15-19) [triple agonist of SEQ ID NO: 89], the “In vitro activity compared to native-type peptide (%), vs GIP” value (“In vitro activity … (%), vs GIP” for short) falls from 58% to under 0.1%.

Going from Y[Aib]QGTFTSDYSKALDEKAAKEFVQWLLDQHPSSGQPPPSC (bridge 16-20) [triple agonist of SEQ ID NO: 100] to Y[Aib]QGTFTSDYSKYLDEKRAKEFVQWLLDCHPSSGQPPPS (bridge 16-20) [triple agonist of SEQ ID NO: 97], the “In vitro activity … (%), vs GIP” value falls from 118% to 2.6%.

Y[Aib]QGTFTSDYSKYLDEKRAKEFVQWLLCHHPSSGQPPPS (bridge 16-20) [triple agonist of SEQ ID NO: 95] and [Acetyl(2-(4-imidazolyl))]GQGTFTSDYSIQLDEIAVRDFVEWLKNGGPSSGAPPPSHG [triple agonist of SEQ ID NO: 14] cannot be ordered by “In vitro activity … (%), vs GIP” value: under 0.1% for the first, under 0.1% for the second.

{Acetyl(2-(4-imidazolyl))}-[Aib]QGTFTSDYSKYLDEKRQKEFVQWLLNTKC (bridge 15-19) [triple agonist of SEQ ID NO: 88] and H[Aib]QGTFTSDVSSYLDGQAQKEFIAWLVKGC [triple agonist of SEQ ID NO: 2] cannot be ordered by “In vitro activity … (%), vs GIP” value: under 0.1% for the first, under 0.1% for the second.

[Acetyl(2-(4-imidazolyl))]GEGTFISDYSIQLDEIAVQDFVEWLLAQKPSSGAPPPSHG [triple agonist of SEQ ID NO: 13] and [Acetyl(2-(4-imidazolyl))]GEGTFTSDLSKYLDSRRQQLFVQWLKAGGPSSGAPPPSHG [triple agonist of SEQ ID NO: 11] cannot be ordered by “In vitro activity … (%), vs GIP” value: under 0.1% for the first, under 0.1% for the second.

Compared with Y[Aib]QGTFTSDYSKALDEKAAKEFVNWLLDQHPSSGQPPPSC (bridge 16-20) [triple agonist of SEQ ID NO: 101], [Acetyl(2-(4-imidazolyl))]GQGTFTSDLSKQMDEERAREFIEWLLAQKPSSGAPPPSHG [triple agonist of SEQ ID NO: 17] is lower in “In vitro activity … (%), vs GIP” value: 40.1% for the first, under 0.1% for the second.

[Acetyl(2-(4-imidazolyl))]GQGTFTSDLSKQMDSERAREFIEWLKNTGPSSGAPPPSHG [triple agonist of SEQ ID NO: 18] and H[Aib]QGTFTSDVSKYLDGQAAQEFVAWLLAGGGPSSGAPPPSC [triple agonist of SEQ ID NO: 10] cannot be ordered by “In vitro activity … (%), vs GIP” value: under 0.1% for the first, under 0.1% for the second.

The binders below were run against human GCG receptor (human, UniProt P47871 26-477) (assay: cell-based or functional assay).
Sequence of human GCG receptor (P47871 26-477): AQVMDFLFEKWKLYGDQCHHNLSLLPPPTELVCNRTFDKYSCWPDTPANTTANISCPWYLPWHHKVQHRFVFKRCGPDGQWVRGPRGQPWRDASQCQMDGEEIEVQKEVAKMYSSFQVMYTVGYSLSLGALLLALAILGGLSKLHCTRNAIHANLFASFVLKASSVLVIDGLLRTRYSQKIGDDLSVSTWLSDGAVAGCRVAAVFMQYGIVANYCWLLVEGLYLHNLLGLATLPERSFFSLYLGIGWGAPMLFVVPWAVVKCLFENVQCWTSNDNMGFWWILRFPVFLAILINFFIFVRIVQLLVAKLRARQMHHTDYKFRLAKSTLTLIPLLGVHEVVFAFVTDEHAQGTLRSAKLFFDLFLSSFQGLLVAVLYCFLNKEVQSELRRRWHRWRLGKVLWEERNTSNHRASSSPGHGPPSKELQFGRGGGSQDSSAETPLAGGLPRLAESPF

First: Y[Aib]QGTFTSDYSKALDEKAAKDFVNWLLDQHPSSGQPPPSC (bridge 16-20) [triple agonist of SEQ ID NO: 102]
Second: {Acetyl(2-(4-imidazolyl))}-[Aib]QGTFTSDYSKYLDEKRQKEFVQWLLDTKC (bridge 15-19) [triple agonist of SEQ ID NO: 89]
The “In vitro activity compared to native-type peptide (%), vs Glucagon” value (“In vitro activity … (%), vs Glucagon” below) of the first is higher: 29.5% for the first, 0.7% for the second.

Compared with Y[Aib]QGTFTSDYSKALDEKAAKEFVQWLLDQHPSSGQPPPSC (bridge 16-20) [triple agonist of SEQ ID NO: 100], Y[Aib]QGTFTSDYSKYLDEKRAKEFVQWLLDCHPSSGQPPPS (bridge 16-20) [triple agonist of SEQ ID NO: 97] is higher in “In vitro activity … (%), vs Glucagon” value: 12.7% for the first, 62.8% for the second.

Compared with Y[Aib]QGTFTSDYSKYLDEKRAKEFVQWLLCHHPSSGQPPPS (bridge 16-20) [triple agonist of SEQ ID NO: 95], [Acetyl(2-(4-imidazolyl))]GQGTFTSDYSIQLDEIAVRDFVEWLKNGGPSSGAPPPSHG [triple agonist of SEQ ID NO: 14] is lower in “In vitro activity … (%), vs Glucagon” value: 0.4% for the first, under 0.1% for the second.

Compared with {Acetyl(2-(4-imidazolyl))}-[Aib]QGTFTSDYSKYLDEKRQKEFVQWLLNTKC (bridge 15-19) [triple agonist of SEQ ID NO: 88], H[Aib]QGTFTSDVSSYLDGQAQKEFIAWLVKGC [triple agonist of SEQ ID NO: 2] is lower in “In vitro activity … (%), vs Glucagon” value: 0.3% for the first, under 0.1% for the second.

[Acetyl(2-(4-imidazolyl))]GEGTFISDYSIQLDEIAVQDFVEWLLAQKPSSGAPPPSHG [triple agonist of SEQ ID NO: 13] and [Acetyl(2-(4-imidazolyl))]GEGTFTSDLSKYLDSRRQQLFVQWLKAGGPSSGAPPPSHG [triple agonist of SEQ ID NO: 11] cannot be ordered by “In vitro activity … (%), vs Glucagon” value: under 0.1% for the first, under 0.1% for the second.

Compared with Y[Aib]QGTFTSDYSKALDEKAAKEFVNWLLDQHPSSGQPPPSC (bridge 16-20) [triple agonist of SEQ ID NO: 101], [Acetyl(2-(4-imidazolyl))]GQGTFTSDLSKQMDEERAREFIEWLLAQKPSSGAPPPSHG [triple agonist of SEQ ID NO: 17] is lower in “In vitro activity … (%), vs Glucagon” value: 13.9% for the first, under 0.1% for the second.

[Acetyl(2-(4-imidazolyl))]GQGTFTSDLSKQMDSERAREFIEWLKNTGPSSGAPPPSHG [triple agonist of SEQ ID NO: 18] and H[Aib]QGTFTSDVSKYLDGQAAQEFVAWLLAGGGPSSGAPPPSC [triple agonist of SEQ ID NO: 10] cannot be ordered by “In vitro activity … (%), vs Glucagon” value: under 0.1% for the first, under 0.1% for the second.

— patent US20230381333A1 (HANMI PHARM, published 2023)
